Measurements published in paper PMC9170038, “Crowdsourced RNA design discovers diverse, reversible, efficient, self-contained molecular switches”.

Biological target: MS2 coat protein, dlFG mutant (Escherichia phage MS2, UniProt P03612, del68-81insG)
Assay: 4 mM Mg2+; no ligand; RNA-MaP array; 100 mM Tris-HCl pH 7.5, 80 mM KCl, 4 mM MgCl2, 0.1 mg/mL BSA, 1 mM DTT, 0.01 mg/mL yeast tRNA, 0.01% Tween-20; protein 1.5 nM to 3 uM; 37 C (Table S3)
Settings: chain copies: 2; label: tethered by stalled RNA polymerase

Binder | Kd
Eterna 7616965 (Same State - Arginine A) (ssRNA) RNA: UACAUGAGGAUCACCCAUGUAUGUAUCGAAGGAGCGCGUGUAAACGCAGGUAGGUCGCGAACAUGAGGAUCACACAUGAGGAUCA | 24.5 nM
Eterna 11304 (Exclusion 2) (ssRNA) RNA: UCGGCGCGAGGAUAUACGGUUGCUUGGUAGGGUCGUGGCGUACAUGAGGAUCACCCAUGUAGAAGGCGCGCCGC | 17.3 nM
Eterna 7728774 (Exclusion - Theophylline A) (ssRNA) RNA: AUCACAGUGAUGUUGUGAUAUGAUUCAGAUACCAGACUAGUGCUAGUCCCUUGGCAGCUGAACUCAGCAGCACCACUAGCACUCU | > 3000 nM
Eterna 5987116 (Exclusion 5) (ssRNA) RNA: UUAGGAUCAGGAUAUGAUGUUUUAAACAUGAGGAUCACCCAUGUAGAUCCUGAUUCAACAUCAGAAGGGAUAAUUU | 15.1 nM
Eterna 7697880 (Same State - Tryptophan B) (ssRNA) RNA: AACAGCAAUGCGGCCGCCACUUCGAGGUCAGUGAUGUUGACAGAAUUAAAUAAAGAUCCCAAGAGGAGGACCGGGCAGUGCUGUU | > 3000 nM
Eterna 7688897 (Exclusion - Tryptophan B) (ssRNA) RNA: ACGAUCAUGUCGGCCGCCACUGAGAGUAGUGAUGUUACUUUUAUGUUUUAGUUAUAAUAUUUGAACAGGACCGGGACAUGUUCGU | > 3000 nM
Eterna 7619949 (Exclusion - Theophylline A) (ssRNA) RNA: CGCAACCCUAAGGGAUUGUGGUUAUUAGAUACCAGUAUGAUGCAAUACCCUUGGCAGCUAAUACAUGAGGAUCACCCAUGUUGCG | 13.8 nM
Eterna 1281 (Exclusion - Tryptophan B) (ssRNA) RNA: GAGAAUCUCACGGCCGCCACUCACCUGUUAAUUGACAUCGACGGCCUCGACCAGUGAUGUUGUGUGAGGACCGGGUGUCUCGUGU | > 3000 nM
Eterna 7691660 (Exclusion - Tryptophan B) (ssRNA) RNA: AGAUUCGACACGGCCGCCACUUGUGGUGGAUUAUCCUAUGUAAGACAUGAGUGAUGUUCAUGUACAAGGACCGGGUGUUGAGUCU | > 3000 nM
Eterna 6445724 (Inverted Small Loop Same State NG 1) (ssRNA) RNA: AACCUAAAACAGAAGGCCAGCUACAUGAGGAUCACCCAUGUCGAAUCAUGGAGGAUAUGUUGUAAUUUACUCGCAGAUGAGUGC | 35.5 nM
Eterna 7678688 (Same State - Tryptophan A) (ssRNA) RNA: AACACUCUGGGAGUGAUGUUCUCAAAUAACCGAGGACCGGUACGGCCGCCACUCGGAAAAGAGUGAGUCCUACGAAAAGUAGGAC | > 3000 nM
Eterna 5859795 (Exclusion NG 3) (ssRNA) RNA: ACAUGAGGAUCACCCAUGUAAUGAAGGGUACUAUACUAAACGUAGGAUAUCGAUGUAAGAUUGUACGAGAAGGACGAUUGCCUU | 45.5 nM
Eterna 7612252 (Exclusion - Arginine B) (ssRNA) RNA: ACGUAAUGCAGAAGGAGCGUCUGAUUUUAACAUGAGGAUCACCCAUGUAAUAUUUAUGGUAGACAGGUAGGUCGCUGAAGUACGA | 15.4 nM
Eterna 7708488 (Same State - Arginine A) (ssRNA) RNA: UAUACGAAGCAGUGAUGUUGCUUAUGAGAAGGAGCGCACGAAAGUGCAGGUAGGUCGCUCAGCCAUGUGGACGAAAACGUCCACA | > 3000 nM
Eterna 7625640 (Exclusion - Theophylline B) (ssRNA) RNA: UAUAUUGUGAUGGAUACCAGCAGAGAAAACGUUUAUCCUAACAUGAGGAUCACCCAUGUAUGCCCUUGGCAGCUGUUGUGGUAUA | 44.2 nM
Eterna 7684651 (Exclusion - Tryptophan A) (ssRNA) RNA: AACUUAAUUUAUAAGCAGUGAUGUUGCUCACGAGGACCGGUACGGCCGCCACUCGAUCGGACUUAGGUCUUCAAUUAUUUCAUUA | > 3000 nM

Binder | Kd
Eterna 7727526 (Same State - Tryptophan A) (ssRNA) RNA: GACGGGCAGUGAUGUUGCCGGUCUCUUGGACGAGGACCGGUACGGCCGCCACUCGAUCUGAUGCGAGAAUUGUAUCUUUUAAUAA | > 3000 nM
Eterna 7754737 (Exclusion - Tryptophan A) (ssRNA) RNA: CGCUUUGCGUCCGGUAGUGAUGUUACCAAGCGAGGACCGGUACGGCCGCCACUCGAGUGACAGACGUACUGGUAUCACCCGCUUU | > 3000 nM
Eterna 6056021 (Exclusion 3) (ssRNA) RNA: GGGCCCGGAGGAUAUACAUGAGGAUCACCCAUGUAGGGCCCGGGUAUUCCCGGGUUUUGUAGAAGGCCGGGCCC | 15 nM
Eterna 6122884 (Exclusion NG 3) (ssRNA) RNA: CGAUAACAUAGUUAUCCGUAACGGACAUGAGGAUCACCCAUGUAGGAUAUGUUACUAAACUAGUAACAGAAGGACAUGAGUCUU | 37.2 nM
Eterna 6433253 (Small Loop Same State NG 3) (ssRNA) RNA: CGUUUAUAUAUGGGUUUAUAUUAUGAGGAUAUCAAUAUUUAAUACAUGAGGAUCACCCAUGUUACUGAGAAGGCAUAAUUAACG | 12.1 nM
Eterna 7689816 (Same State - Arginine A) (ssRNA) RNA: GCGAACAUUCGCAGUGAUGUUGCGACGGAAGGAGCGCGUGAAAACGCAGGUAGGUCGCCGACAUACUUAAUUUUACAGUGUUCGC | > 3000 nM
Eterna 6388885 (Inverted Exclusion NG 1) (ssRNA) RNA: UUAUUUUUACAGAAGGUUUAAUAAUAUGUAUGAGAAGGAUAUGUAACAUGAGGAUCACCCAUGUUUUAUUUAUAUGAGGAUCAU | 10.7 nM
Eterna 7653720 (Same State - Theophylline B) (ssRNA) RNA: UGUAUGUGAUUUGAUACCAGACCAGCUGGUGGUACCUGAGGAACACCCAGGUAGGUUUGGGUCCCUUGGCAGCAAAUCGCAUACU | 35.5 nM
Eterna 7748347 (Exclusion - Theophylline B) (ssRNA) RNA: UUUUAGGUAUCUGAUACCAGAGAAAAUAUAUGUAGUGAUGUUAUAUACAAAAUAAUUAAGCUCCCUUGGCAGCAGUUUUAAUUUU | > 3000 nM
Eterna 6391458 (Small Loop Exclusion NG 1) (ssRNA) RNA: ACAUGUUUUGUAGGAUAUCACUAGUUGUGUUAUAUAUUUGUUAUAAUGUAUUGAGAAGGACAUUUACAUGAGGAUCACCCAUGU | 8.7 nM
Eterna 1103 (Exclusion - Theophylline A) (ssRNA) RNA: AGUGACGAGUGAUGUUCGUGAACACUGGAUACCAGCAGUCUUAUCUGCCCUUGGCAGCCAACGGGAACCGAAUGUUAAGACCUGU | > 3000 nM
Eterna 1109 (Exclusion - Theophylline A) (ssRNA) RNA: UCGGCGGAGUGAUGUUCCUAUGUCCAAGAUACCAGUCUAUGAACGGACCCUUGGCAGCUUCCAUUAGGUUACUAUUUAGACUCAU | > 3000 nM
Eterna 7769703 (Exclusion - Tryptophan A) (ssRNA) RNA: AAACAUCACUGGGAGUGAUGUUCUCAGUGACGAGGACCGGUACGGCCGCCACUCGCGAGAGAACUAGUCUAGACUUGACUGCAUU | > 3000 nM
Eterna 10350 (Sensor for hsa-mir-208a) (ssRNA) RNA: GCCCAUAGUAUAUGGAUACAAGCUUUUUGACAUGAGGAUCACCCAUGUACUCGUCUUAUGUGCAGUCCGUAGACUGC | 27.2 nM
Eterna 7641374 (Exclusion - Arginine A) (ssRNA) RNA: GACAUGAGGAUCACCCAUGUUUUCUAUGAAGGAGCGUCGGAAAUGACAGGUAGGUCGCAUGGUAGGACUUGUAUCUUGUAUGUAG | 14.5 nM
